Assay: Sedimentation rate / physical stability of micronized drug dispersions in HFA227 with or without chitosan-PLA nanoparticles
Protocol: Sedimentation rate of micronized insulin in HFA 227 were conducted to test the physical stability of dispersions.

[1] = pure (bare) drug particles in HFA227

insulin
creaming of dispersion [1]: creaming out in seconds
redispersibility [1]: not being redispersible
physical stability of dispersion (pure (bare) drug particles, 2 mg/ml in HFA227, 298K, saturation pressure): poor stability
physical stability of dispersion (upon addition of chitosan-PLA nanoparticles (1 or 2 mg/ml), HFA227): improved
redispersibility (with chitosan-PLA nanoparticles, HFA227, after storage): can be redispersed simply by hand-shaking even after several days of storage

— patent publication US20110223216A1, “Nanoparticles and Porous Particles and Methods of Making the Same” (WAYNE STATE UNIVERSITY, priority 2008, published 2011)
